Blank lines part the entries; values can stand above or below the binder they belong to.
Target: T1, C1q isolated from mouse serum (mouse, UniProt P98086 23-245; P14106 26-253; Q02105 30-246)
T1 construct: complement C1q subcomponent chain A (C1qA), mouse; complement C1q subcomponent chain B (C1qB), mouse; complement C1q subcomponent chain C (C1qC), mouse; also called purified C1q; copies: 6 + 6 + 6
Assay: ELISA; NP1, NP2 or PTX3 coated (10 µg/ml in PBS, overnight 4 °C), blocked with 4% BSA in PBS-T; C1q 5.6–45 µg/ml in PBS, 1 h at RT; bound C1q detected with anti-C1qb antibody
Settings: both partners purified

T1 sequence (P98086 23-245, chain 1 of 3): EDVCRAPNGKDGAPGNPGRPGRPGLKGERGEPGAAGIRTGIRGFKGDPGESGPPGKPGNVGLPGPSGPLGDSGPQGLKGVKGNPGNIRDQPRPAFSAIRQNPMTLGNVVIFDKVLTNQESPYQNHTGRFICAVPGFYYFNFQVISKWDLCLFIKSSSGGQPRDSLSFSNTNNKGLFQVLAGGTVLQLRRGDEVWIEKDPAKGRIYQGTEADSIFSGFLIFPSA
T1 sequence (P14106 26-253, chain 2 of 3): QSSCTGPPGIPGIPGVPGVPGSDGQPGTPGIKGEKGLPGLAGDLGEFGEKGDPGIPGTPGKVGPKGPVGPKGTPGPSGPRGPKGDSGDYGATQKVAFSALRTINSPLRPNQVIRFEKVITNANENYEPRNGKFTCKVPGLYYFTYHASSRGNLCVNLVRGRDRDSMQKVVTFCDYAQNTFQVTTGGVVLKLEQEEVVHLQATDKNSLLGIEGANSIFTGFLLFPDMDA
T1 sequence (Q02105 30-246, chain 3 of 3): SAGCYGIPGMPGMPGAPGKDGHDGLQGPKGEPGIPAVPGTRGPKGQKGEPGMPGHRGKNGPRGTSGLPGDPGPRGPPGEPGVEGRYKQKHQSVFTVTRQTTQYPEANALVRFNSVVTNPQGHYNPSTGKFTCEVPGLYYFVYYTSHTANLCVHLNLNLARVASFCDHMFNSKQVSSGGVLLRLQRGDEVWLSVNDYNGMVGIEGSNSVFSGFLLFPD

binding result: binds
B1: Recombinant human His-tagged neuronal pentraxin 1 (natural protein, UniProt Q15818 23-432, looked up)
chain: QDFGPTRFICTSVPVDADMCAASVAAGGAEELRSSVLQLRETVLQQKETILSQKETIRELTAKLGRCESQSTLDPGAGEARAGGGRKQPGSGKNTMGDLSRTPAAETLSQLGQTLQSLKTRLENLEQYSRLNSSSQTNSLKDLLQSKIDELERQVLSRVNTLEEGKGGPRNDTEERVKIETALTSLHQRISELEKGQKDNRPGDKFQLTFPLRTNYMYAKVKKSLPEMYAFTVCMWLKSSATPGVGTPFSYAVPGQANELVLIEWGNNPMEILINDKVAKLPFVINDGKWHHICVTWTTRDGVWEAYQDGTQGGSGENLAPYHPIKPQGVLVLGQEQDTLGGGFDATQAFVGELAHFNIWDRKLTPGEVYNLATCSTKALSGNVIAWAESHIEIYGGATKWTFEACRQIN
notes: neuronal pentraxin 1 (NP1), human, recombinant; see the vendor's data sheet; also called NP1; NPs (with NP2); source: bought: R&D Systems (7707-NP-050)

binding result: binds
B2: Recombinant human His-tagged neuronal pentraxin 2 (natural protein, UniProt P47972 16-431, looked up)
chain: GAQDSPAPGSRFVCTALPPEAVHAGCPLPAMPMQGGAQSPEEELRAAVLQLRETVVQQKETLGAQREAIRELTGKLARCEGLAGGKARGAGATGKDTMGDLPRDPGHVVEQLSRSLQTLKDRLESLEHQLRANVSNAGLPGDFREVLQQRLGELERQLLRKVAELEDEKSLLHNETSAHRQKTESTLNALLQRVTELERGNSAFKSPDAFKVSLPLRTNYLYGKIKKTLPELYAFTICLWLRSSASPGIGTPFSYAVPGQANEIVLIEWGNNPIELLINDKVAQLPLFVSDGKWHHICVTWTTRDGMWEAFQDGEKLGTGENLAPWHPIKPGGVLILGQEQDTVGGRFDATQAFVGELSQFNIWDRVLRAQEIVNIANCSTNMPGNIIPWVDNNVDVFGGASKWPVETCEERLLDL
notes: neuronal pentraxin 2 (NP2), human, recombinant; see the vendor's data sheet; also called NP2; NPs (with NP1); source: bought: R&D Systems (7816-NP-050)
